Kd data for 1 molecule are collected here from paper doi:10.1101/2025.06.13.659133.

For this test, the target named is dual specificity anti-activin A/B antibody (human IgG1 format) (human). Kind of test: BLI. For orientation: BLI is a label-free optical method that tracks binding on a fibre tip over time.

B1: mature human activin A (ligand)
chain: GLECDGKVNICCKKQFFVSFKDIGWNDWIIAPSGYHANYCEGECPSHIAGTSGSSLSFHSTVINHYRMRGHSPFANLKSCCVPTKLRPMSMLYYDDGQNIIKKDIQNMIVEECGCS
A word on the Kd: it is the concentration at which binding is half-saturated. B1 had a Kd of 0.13 nM.
